Experimental data: patent US20260069656A1, “Nutritive Polypeptides and Formulations Thereof, and Methods of Production and Use Thereof” (Axcella Health Inc., priority 2013, published 2026)
Changes are numbered by the printed parent chain. Names may count otherwise. One block for each molecule: values may come before it.

Legend:
[1] = SGF digest of the 168 nutritive polypeptide library, intact protein by LC-MS/MS spectral counts; type: in vitro ADME; conditions: proteins detected in the 168 nutritive polypeptide library
Experimental: Nutritive polypeptide intact half-life determination in a complex mixture. The in vitro intact half-life of multiple polypeptides in a complex mixture was determined using the simulated gastric in vitro digestion described above. Briefly, the 168 nutritive polypeptide library was generated as described herein by cloning, transforming, and expressing a gene library encoding 168 proteins as a single mixture. The recombinantly expressed proteins were purified from host cell proteins by IMAC purification as described herein.
The 168 Protein Library was treated with SGF as described above and the t=0 and t=10 min samples were analyzed for intact protein by LC-MS/MS. To begin, 10 μg of sample was loaded onto a 10% SDS-PAGE gel (Invitrogen) and run approximately 5 cm into the gel. The gel was excised into ten fractions from 100 kD to the dye front and the gel slices were processed by washing with 25 mM ammonium bicarbonate, followed by acetonitrile. Gel fractions were then reduced with 10 mM dithiothreitol at 60° C., followed by alkylation with 50 mM iodoacetamide at room temperature. Finally, the samples were digested with trypsin (Promega) at 37° C. for 4 h and the digestions were quenched with the addition of formic acid. The samples were then analyzed by nano LC/MS/MS using an EasynLC 1000 HPLC system interfaced to a ThermoFisher Q Exactive. Peptides were loaded on a trapping column and eluted over a 75 μm analytical column at 350 nL/min; both columns were packed with PepMap C18 3 μm resin (ThemoFisher). A 1 hour gradient was employed. The mass spectrometer was operated in data-dependent mode, with MS and MS/MS performed in the Orbitrap at 70,000 FWHM resolution and 17,500 FWHM resolution, respectively. The fifteen most abundant ions were selected for MS/MS. Data were searched against an appropriate database using Mascot to identify peptides. Mascot DAT files were parsed into the Scaffold software for validation, filtering and to create a nonredundant list per sample. Data were filtered at 1% protein and peptide false discovery rate (FDR) and requiring at least two unique peptides per protein. A full list of detected proteins and their spectral counts (SpC) was generated and reported as a function of each collected gel fraction. SpC are a count of the number of spectra identified for a given protein and are used as a measure of relative protein abundance (Liu, H. et al., Analytical Chemistry 2004, 76:4193-4201). To calculate the percentage of intact protein remaining at the 10 min time point of the SGF digest the number of SpC representative of intact peptide in the t=10 min sample were divided by the number of SpC representative of intact peptide in the t=0 min sample. The number of SpC representative of intact peptide was defined as the sum of the SpC in the fraction with the highest number of SpC assigned to that protein in the t=0 min sample and the two flanking fractions.

[2] = Intact half-life during simulated gastric fluid (SGF) digestion; conditions: for SGF Half-life (t½): SGF pH 1.5, pepsin:polypeptide 1:20 w/w, 37° C., produced in E. coli unless otherwise noted; for Half-life: purified proteins, chip electrophoresis, SGF
Experimental: Nutritive polypeptide half-life during simulated digestion. One metric for quantifying the breakdown of polypeptides from an intact form to smaller peptides is the intact half-life. In this experiment the nutritive polypeptide was exposed to a series of proteases that are active in the stomach (pepsin) and intestine (trypsin and chymotrypsin), and the presence of intact protein was measured over time. Specifically, the nutritive polypeptide was first treated at a concentration of 2 g/L with simulated gastric fluid (SGF) (0.03 M NaCl, titrated with HCl to pH 1.5 with a final pepsin: polypeptide ratio of 1:20 w/w) at 37° C. Time points were sampled from the reaction and quenched by addition of 0.2 M Na2CO3. […] Time points were sampled from the reaction and quenched by addition of Trypsin/Chymotrypsin Inhibitor (Sigma) solution until 240 min.
Time point samples were analyzed for intact protein by chip electrophoresis, polyacrylamide gel electrophoresis, or western blot. For chip electrophoresis (Labchip GX II), samples were analyzed using a HT Low MW Protein Express LabChip® Kit (following the manufacturer's protocol). A protein ladder was loaded every 12 samples for molecular weight determination (kDa) and quantification. For polyacrylamide gel electrophoresis, samples (1 μg) were separated on a NuPAGE® Novex® Bis-Tris Precast gel (Life Technologies) according to the manufacturer's protocol. The gel was stained using SimplyBlue™ SafeStain (Invitrogen) and imaged using a Chemidoc XRS+ (BioRad) or transferred onto nitrocellulose membranes using the iBlot® Dry Blotting System (Life Technologies) and iBlot® Western Detection Kit (Life Technologies) according to the manufacturer's protocol. Proteins were detected by blotting with Anti-His [C-term]-HRP antibody diluted 3:5000 in Blok™-PO Blocking Buffer using the SNAP i.d.® Protein Detection System (Millipore) according to the manufacturer's protocol. Blots were treated with Luminata Classico Western HRP Substrate (Millipore) according to the manufacturer's protocol and imaged using chemiluminescent detection on the Molecular Imager® Gel Doc™ XR+ System (Bio-Rad). Quantification of intact protein was determined by densitometry using ImageLab (BioRad). For all analysis methods the relative concentration of the polypeptide at each time point (if detected) was plotted overtime and fit to an exponential curve to calculate the intact half-life.
Specifically, the t=0 (enzyme-free control) and t=2 min samples from the SGF digest were analyzed for intact protein as described by chip electrophoresis, SDS-PAGE, western blot, and/or LC-MS/MS. Relative quantities of polypeptides at each time point were determined and the percentage of intact protein remaining at t=2 was determined.

[3] = Thermostability, ProteoStat Thermal Shift Stability Kit, temperature of aggregation; type: physicochemical
Experimental: Thermostability. The thermostability of proteins in a buffer cocktail of Citric Acid and Dibasic Sodium Phosphate over a pH range of 2.8 to 7.1 (preparation described above in Table E31B) was determined using the ProteoStat® Thermal Shift Stability Kit (Enzo Life Sciences) according to the manufacturer's standard protocol. Briefly, protein solutions (˜10 mg/ml) containing 1× ProteoStat TS Detection Reagent were heated from 25° C. to 95° C. at a rate of 0.5° C. per 30 sec using a real-time PCR (rtPCR) thermocycler (BioRad) equipped with a plate reader (SynergyMx, Biotek) while monitoring the fluorescence with a Texas Red filter.

[4] = tested on: kinase activity of SEQID-00338 (AMP + ATP→2ADP); assay: Kinase activity of SEQID-00338 and mutants, ADP-Glo Max Assay; type: biochemical; conditions: 7 μg/mL, 30 minute reaction at 30° C.; N=2
Experimental: Determination of the kinase activity of SEQID-00338. The ADP-Glo™ Max Assay was obtained from Promega (Catalog number V7001, Madison, WI). Adenosine Monophosphate was obtained from Sigma-Aldrich (Catalog number A1752, St. Louis, MO). 5× Kinase Buffer was prepared w/1.211 g Tris Base (Catalog number BP152-2, Fisher Bioreagents, Pittsburgh, PA), 692 μL 12% hydrochloric acid solution (Catalog number BDH3026-500MLP, VWR, Radnor, PA), 10.0 mL 500 mM magnesium chloride (Catalog number BP214-500, Fisher Bioreagents, Pittsburgh, PA) and the volume brought to 50 mL with MilliQ water and filtered through 0.22 μm PES filter (Catalog number SCGP00525, Millipore, Billerica, MA) into a sterile 50 mL tube.
Twelve his-tag purified mutant proteins and the wild-type protein at 35 μg/mL in Tris buffer were serially diluted to 7.0 and 1.4 μg/mL. Prepared kinase reaction mix at 0.5 mM AMP/0.5 mM ATP to test for activity and at 0 mM AMP/0 mM ATP to assay background activity by diluting 5× Kinase Buffer with appropriate volumes of 10 mM AMP and 10 mM ATP in MilliQ water. Duplicate reactions were prepared by mixing 9 μL of the reaction mixture with 6 μL of diluted SEQID-00338, mixing by pipetting up and down and dispensing 5 μL into a 384-well white OptiPlate (PerkinElmer, Waltham, MA). An ADP standard curve was prepared by serially diluting 4 mM ADP in MilliQ water and adding kinase buffer to 1× for a standard at 0.0005, 0.001, 0.005, 0.01, 0.05, 0.1, 1.5, 1, 2, 3, and 4 mM ADP. The plate was covered with a foil plate seal and incubated at 30° C. for 30 min. Following the kinase reaction, 5 μL of ADP-Glo™ Reagent was added to each well. The plate was sealed with a foil plate seal and placed on a horizontal plate shaker at 450 rpm for 2 minutes at room temperature. The plate was removed from the plate shaker and incubated at room temperature for 40 minutes. The plate was then centrifuged for 15 seconds at 1109× rcf and 10 μL of ADP-Glo™ Max Detection Reagent was added. The plate was sealed with a foil plate seal and shaken on a horizontal plate shaker at 450 rpm at room temperature for 2 minutes. The plate was then removed from the plate shaker and incubated at room temperature for 60 minutes. The plate was centrifuged for 15 seconds at 1109× rcf and the luminescence read on an EnspireAlpha plate reader (PerkinElmer, Waltham, MA).
The ADP standard curve was used to determine the concentration of ADP in sample wells in the presence or absence of substrate. Concentrations were determined by performing a non-linear 4 parameter logistic on the X=log(X) transformed ADP standard luminescence values. […] Where the background concentration of ADP in the absence of substrate was calculable the average of those values were subtracted from the calculated ADP concentration in the substrate incubated wells. Activity knock out was calculated by percentage activity relative to purified wild-type protein at the same concentration.

B1: SEQID-00610: protein of the 168 nutritive polypeptide library (protein, listed as Saccharomyces cerevisiae)
chain: MVLEATVLVIDNSEYSRNGDFPRTRFEAQIDSVEFIFQAKRNSNPENTVGLISGAGANPRVLSTFTAEFGKILAGLHDTQIEGKLHMATALQIAQLTLKHRQNKVQHQRIVAFVCSPISDSRDELIRLAKTLKKNNVAVDIINFGEIEQNTELLDEFIAAVNNPQEETSHLLTVTPGPRLLYENIASSPIILEEGSSGMGAFGGSGGDSDANGTFMDFGVDPSMDPELAMALRLSMEEEQQRQERLRQQQQQQDQPEQSEQPEQHQDK
modifications: strain ATCC 204508 / S288c
notes: protein of the 168 nutritive polypeptide library
% Remaining at 10 min [1]: 3.3% | SGF Half-life (t½) [2]: 24 s | Half-life [2]: 24 s

B2: SEQID-00606: protein of the 168 nutritive polypeptide library (protein)
chain: MASEGDHHHHHHHHQDHDHHHHDHDHHHHHDGEGETNSWVGKDGKVYHSHDGLAPHSHEPIYSPGYFTRRAPPLLNRNFNERAFTVGIGGPVGTGKTALMLALCELLRENYSLAAVTNDIFTKEDGEFLVKHKALPEERIRAVETGGCPHAAIREDISINLGPLEELSNLFKADILLCESGGDNLAANFSRELADYIIYIIDVSGGDKIPRKGGPGITQADLLVINKTDLAPAIGADLAVMQRDALRMRDGGPFVFAQVKHKIGVEEIGNLVLQAWEAATGNKRH
modifications: Glycine max
notes: as for B1
% Remaining at 10 min [1]: 0% | Tagg (pH 7.1) ([3]; heated from 25° C. to 95° C.): 95 | SGF Half-life (t½) [2]: 18 s | Half-life [2]: 18 s

B3: R42L: single amino acid mutant of SEQID-00338 at substrate binding position 42 (protein, listed as Saccharomyces cerevisiae)
chain: MSSSESIRMVLIGPPGAGKGTQAPNLQERFHAAHLATGDMLLSQIAKGTQLGLEAKKIMDQGGLVSDDIMVNMIKDELTNNPACKNGFILDGFPRTIPQAEKLDQMLKEQGTPLEKAIELKVDDELLVARITGRLIHPASGRSYHKIFNPPKEDMKDDVTGEALVQRSDDNADALKKRLAAYHAQTEPIVDFYKKTGIWAGVDASQPPATVWADILNKLGKD
modifications: strain ATCC 204508 / S288c
AVG proportion activity, percentage AMP + ATP→2ADP converted relative to wild-type [4]: 1.7%

B8: SEQID-00647: protein of the 168 nutritive polypeptide library (protein)
chain: MALSKIEEARQLNDDDLSEQILEIKKQLANLRLLKATGRLEKPHEIRHTRHRLSQLLTVERERQLPNQSPA
modifications: Arthrospira platensis C1
notes: as for B1
% Remaining at 10 min [1]: 12% | SGF Half-life (t½) [2]: 12 s | Half-life [2]: 12 s

B9: SEQID-00601: protein of the 168 nutritive polypeptide library (protein, listed as Agaricus bisporus)
chain: MTRSWEPGTQYNLGDVVEYNGDEYKIIQAHSSQSDWAPDRTPALWGKLPHRHHQQGQYQQQQECQPQQPQKTCYDYGKQEQAPQHSDSKEKKNWFGNITESQKQALEVGGGVALGAGLLGGAFAAWKHHQHKEEAHDSFEAWANAARSRAEEFRAKGPQGPATWVYNEGKHIPEQAILVGTEHNWNLYICRAYCDGGVQIGKASDVFKKGAVIGYKEDEHHLDKYEILLGDMRGLKWVQTGNSLDLASLGATPVEGGYENDHTRLYIARAFHKGAKHPGKVSERLDGAYIPYDGKEKCVKEYEVLCYL
modifications: var. bisporus; strain H97 / ATCC MYA-4626 / FGSC 10389
notes: as for B1
% Remaining at 10 min [1]: 1.1% | Tagg pH 2.8 ([3]; pH 2.8, NS = protein not soluble): 95 | Tagg pH 3.7 ([3]; pH 3.7, NS = protein not soluble): 95 | Tagg pH 4.3 ([3]; pH 4.3, NS = protein not soluble): 95 | Tagg pH 6.5 ([3]; pH 6.5, NS = protein not soluble): 45.5 | Tagg (pH 7.1) ([3]; heated 25° C. to 95° C., NS = protein not soluble): 48.5 | SGF Half-life (t½) [2]: 12 s | Half-life [2]: 12 s

Now from value to molecule:

AVG proportion activity, percentage AMP + ATP→2ADP converted relative to wild-type [4]: 0.4%
B4: D91I: single amino acid mutant of SEQID-00338 at magnesium ion binding site position 91 (protein, listed as Saccharomyces cerevisiae)
chain: B3 chain with L42R, D91I
modifications: strain ATCC 204508 / S288c

AVG proportion activity, percentage AMP + ATP→2ADP converted relative to wild-type [4]: 0.9%
B5: D91F: single amino acid mutant of SEQID-00338 at magnesium ion binding site position 91 (protein, listed as Saccharomyces cerevisiae)
chain: B3 chain with L42R, D91F
modifications: strain ATCC 204508 / S288c

AVG proportion activity, percentage AMP + ATP→2ADP converted relative to wild-type [4]: 1.9%
B6: R42T: single amino acid mutant of SEQID-00338 at substrate binding position 42 (protein, listed as Saccharomyces cerevisiae)
chain: B3 chain with L42T
modifications: strain ATCC 204508 / S288c

AVG proportion activity, percentage AMP + ATP→2ADP converted relative to wild-type [4]: 1.2%
B7: R42Q: single amino acid mutant of SEQID-00338 at substrate binding position 42 (protein, listed as Saccharomyces cerevisiae)
chain: B3 chain with L42Q
modifications: strain ATCC 204508 / S288c
